Data: patent US12281147

Assays:
[1] = molecular target: wild-type human IL-21R (human) (UniProt Q9HBE5); assay: AlphaSeq yeast mating assay, pH 5 media
[2] = molecular target: wild-type human IL-21R (human) (UniProt Q9HBE5); assay: AlphaSeq yeast mating assay, pH 7 media
[3] = molecular target: wild-type human IL-21R (human) (UniProt Q9HBE5); assay: AlphaSeq yeast mating assay, pH 6 media
[4] = molecular target: wild-type human IL-21R (human) (UniProt Q9HBE5); assay: AlphaSeq yeast mating assay, unbuffered media
[5] = molecular target: mouse IL-21R, His-tagged (BLI antigen) (mouse) (UniProt Q9JHX3); assay: BLI
[6] = molecular target: recombinant human IL-21R His tag (Acro Biosystems) (human) (UniProt Q9HBE5); assay: BLI
[7] = molecular target: human interleukin 21 receptor (IL-21R) (human) (UniProt Q9HBE5); assay: AlphaSeq yeast mating assay, pH 7 media
[8] = molecular target: human interleukin 21 receptor (IL-21R) (human) (UniProt Q9HBE5); assay: AlphaSeq yeast mating assay, unbuffered media
[9] = molecular target: human interleukin 21 receptor (IL-21R) (human) (UniProt Q9HBE5); assay: AlphaSeq yeast mating assay, pH 5 media
[10] = molecular target: human interleukin 21 receptor (IL-21R) (human) (UniProt Q9HBE5); assay: AlphaSeq yeast mating assay, pH 6 media
[11] = molecular target: mouse IL-21R on T cells of mouse splenocytes (mouse) (UniProt Q9JHX3); assay: cell-based or functional assay
[12] = molecular target: human IL-21R on T cells of primary human PBMCs (human) (UniProt Q9HBE5); assay: cell-based or functional assay

For “IL-21_P62H (from UniProt Q9HBE4 32-152) (ligand)”, which Kd [1] is on record?
Its Kd is 160 nM.

What about the Kd [2] of the same substance?
Its Kd is 110 nM.

What about the Kd [3] of the same substance?
The Kd was 21 nM.

What about the Kd [4] of the same substance?
Its Kd is 5100 nM.

For “IL-21_human_I45A Fc fusion protein (from UniProt Q9HBE4 30-162)”, which Kd [5] is on record?
Its Kd is 12.6 nM.

What about the Kd [6] of the same substance?
Its Kd is 1.94 nM.

How did the Kd [7] turn out when “IL-21_K106E (from UniProt Q9HBE4 32-152) (ligand)” was run?
Its Kd is 550 nM.

What about the Kd [8] of the same substance?
The Kd was 120 nM.

“IL-21_R94S (from UniProt Q9HBE4 32-152) (ligand)” was tested. Which Kd [9] did it give?
The Kd was 140 nM.

And the Kd [7]?
Its Kd is 35 nM.

What about the Kd [10] of the same substance?
The Kd was 27 nM.

What does the source list for “IL-21_human_D33T Fc fusion protein (from UniProt Q9HBE4 30-162)”?
Kd [5]: 37.4 nM; Kd [6]: 14.8 nM

Which Kd [9] does the source give for “IL-21_K85S (from UniProt Q9HBE4 32-152) (ligand)” here?
The Kd was 150 nM.

Which results are given for “IL-21_L56M (from UniProt Q9HBE4 32-152) (ligand)”?
Kd [1]: 350 nM; Kd [2]: 84 nM; Kd [3]: 45 nM; Kd [4]: 6700 nM

How did the Kd [9] turn out when “IL-21_R94T (from UniProt Q9HBE4 32-152) (ligand)” was run?
Its Kd is 210 nM.

What about the Kd [7] of the same substance?
The Kd was 80 nM.

And the Kd [10]?
Its Kd is 27 nM.

With “IL-21_human_I43M Fc fusion protein (from UniProt Q9HBE4 30-162)” as the substance, how does the Kd [5] read?
The Kd was 9.04 nM.

And the Kd [6]?
Its Kd is 7.02 nM.

“IL-21_human_I37R Fc fusion protein (from UniProt Q9HBE4 30-162)” was tested. Which Kd [5] did it give?
Its Kd is 35.1 nM.

How did the Kd [9] turn out when “IL-21_N51E (from UniProt Q9HBE4 32-152) (ligand)” was run?
Its Kd is 20 nM.

And the Kd [7]?
Its Kd is 140 nM.

And the Kd [10]?
The Kd was 11 nM.

What about the Kd [8] of the same substance?
The Kd was 250 nM.

How did the Kd [5] turn out when “IL-21_human_D33P Fc fusion protein (from UniProt Q9HBE4 30-162)” was run?
The Kd was 19.8 nM.

And the Mouse T cell EC50 (pM), pSTAT3 phosflow [11]?
The Mouse T cell EC50 (pM), pSTAT3 phosflow was 1800 pM.

“IL-21_human_P108L Fc fusion protein (from UniProt Q9HBE4 30-162)” was tested. Which Kd [5] did it give?
The Kd was 11.8 nM.

And the Kd [6]?
Its Kd is 3.21 nM.

And the Mouse T cell EC50 (pM), pSTAT3 phosflow [11]?
The Mouse T cell EC50 (pM), pSTAT3 phosflow was 71000 pM.

What does the source list for “IL-21_R114F (from UniProt Q9HBE4 32-152) (ligand)”?
Kd [9]: 140 nM; Kd [7]: 57 nM; Kd [10]: 48 nM; Kd [8]: 450 nM

For “IL-21_S142D (from UniProt Q9HBE4 32-152) (ligand)”, which Kd [8] is on record?
Its Kd is 450 nM.

With “IL-21_P108L (from UniProt Q9HBE4 32-152) (ligand)” as the substance, how does the Kd [1] read?
The Kd was 360 nM.

And the Kd [2]?
The Kd was 99 nM.

And the Kd [3]?
The Kd was 35 nM.

And the Kd [4]?
Its Kd is 8100 nM.

Which results are given for “IL-21_H35P (from UniProt Q9HBE4 32-152) (ligand)”?
Kd [9]: 41 nM; Kd [7]: 59 nM; Kd [8]: 560 nM

With “IL-21_human_R38M Fc fusion protein (from UniProt Q9HBE4 30-162)” as the substance, how does the Kd [5] read?
The Kd was 189 nM.

And the Kd [6]?
The Kd was 87.9 nM.

With “IL-21_Q41S (from UniProt Q9HBE4 32-152) (ligand)” as the substance, how does the Kd [1] read?
Its Kd is 140 nM.

What about the Kd [2] of the same substance?
Its Kd is 25 nM.

And the Kd [3]?
Its Kd is 26 nM.

What about the Kd [4] of the same substance?
Its Kd is 3000 nM.

For “IL-21_R34T (from UniProt Q9HBE4 32-152) (ligand)”, which Kd [7] is on record?
The Kd was 140 nM.

What about the Kd [10] of the same substance?
The Kd was 26 nM.

What about the Kd [8] of the same substance?
Its Kd is 350 nM.

With “IL-21_N54P (from UniProt Q9HBE4 32-152) (ligand)” as the substance, how does the Kd [1] read?
Its Kd is 89 nM.

And the Kd [2]?
Its Kd is 27 nM.

What about the Kd [3] of the same substance?
The Kd was 20 nM.

What about the Kd [4] of the same substance?
Its Kd is 5400 nM.

How did the Kd [7] turn out when “IL-21_R115P (from UniProt Q9HBE4 32-152) (ligand)” was run?
The Kd was 57 nM.

What about the Kd [10] of the same substance?
The Kd was 15 nM.

And the Kd [8]?
Its Kd is 55 nM.

Which results are given for “IL-21_human_R105K Fc fusion protein (from UniProt Q9HBE4 30-162)”?
Kd [5]: 41.3 nM; Kd [6]: 16.7 nM

With “IL-21_S77M (from UniProt Q9HBE4 32-152) (ligand)” as the substance, how does the Kd [9] read?
The Kd was 40 nM.

And the Kd [7]?
Its Kd is 60 nM.

And the Kd [10]?
Its Kd is 15 nM.

Which Kd [5] does the source give for “IL-21_human_R34S Fc fusion protein (from UniProt Q9HBE4 30-162)” here?
The Kd was 28.7 nM.

And the Kd [6]?
The Kd was 31.5 nM.

And the Mouse T cell EC50 (pM), pSTAT3 phosflow [11]?
Its Mouse T cell EC50 (pM), pSTAT3 phosflow is 8500 pM.

And the Human T cell EC50 (pM), pSTAT3 phosflow [12]?
Its Human T cell EC50 (pM), pSTAT3 phosflow is 5.6 pM.

What does the source list for “IL-21_human_R38Q Fc fusion protein (from UniProt Q9HBE4 30-162)”?
Kd [5]: 246 nM; Kd [6]: 89.6 nM

With “IL-21_N97G (from UniProt Q9HBE4 32-152) (ligand)” as the substance, how does the Kd [1] read?
Its Kd is 77 nM.

And the Kd [2]?
The Kd was 48 nM.

What about the Kd [3] of the same substance?
The Kd was 24 nM.

What about the Kd [4] of the same substance?
Its Kd is 7600 nM.

With “IL-21_K131V (from UniProt Q9HBE4 32-152) (ligand)” as the substance, how does the Kd [9] read?
The Kd was 26 nM.

How did the Kd [5] turn out when “IL-21_human_E72L Fc fusion protein (from UniProt Q9HBE4 30-162)” was run?
The Kd was 12.3 nM.

Which Kd [5] does the source give for “IL-21_human_K106S Fc fusion protein (from UniProt Q9HBE4 30-162)” here?
Its Kd is 24 nM.

What about the Kd [6] of the same substance?
Its Kd is 5.78 nM.

What does the source list for “IL-21_E93G (from UniProt Q9HBE4 32-152) (ligand)”?
Kd [2]: 150 nM; Kd [3]: 37 nM; Kd [4]: 7200 nM

What does the source list for “IL-21_human_S74H Fc fusion protein (from UniProt Q9HBE4 30-162)”?
Kd [6]: 12.3 nM; Mouse T cell EC50 (pM), pSTAT3 phosflow [11]: 1900 pM; Human T cell EC50 (pM), pSTAT3 phosflow [12]: 3.6 pM

For “IL-21_human_Y52Q Fc fusion protein (from UniProt Q9HBE4 30-162)”, which Kd [5] is on record?
The Kd was 19.4 nM.

What about the Kd [6] of the same substance?
The Kd was 14.4 nM.

What about the Mouse T cell EC50 (pM), pSTAT3 phosflow [11] of the same substance?
Its Mouse T cell EC50 (pM), pSTAT3 phosflow is 9200 pM.

What about the Human T cell EC50 (pM), pSTAT3 phosflow [12] of the same substance?
Its Human T cell EC50 (pM), pSTAT3 phosflow is 8.7 pM.

“IL-21_H118I (from UniProt Q9HBE4 32-152) (ligand)” was tested. Which Kd [9] did it give?
Its Kd is 360 nM.

And the Kd [8]?
Its Kd is 150 nM.

Which results are given for “IL-21_human_E72S Fc fusion protein (from UniProt Q9HBE4 30-162)”?
Kd [5]: 7.75 nM; Mouse T cell EC50 (pM), pSTAT3 phosflow [11]: 47000 pM; Human T cell EC50 (pM), pSTAT3 phosflow [12]: 31 pM

Which Kd [7] does the source give for “IL-21_L120Y (from UniProt Q9HBE4 32-152) (ligand)” here?
The Kd was 58 nM.

Which results are given for “IL-21_P107D (from UniProt Q9HBE4 32-152) (ligand)”?
Kd [9]: 60 nM; Kd [8]: 190 nM

How did the Kd [9] turn out when “IL-21_R34M (from UniProt Q9HBE4 32-152) (ligand)” was run?
Its Kd is 150 nM.

And the Kd [8]?
Its Kd is 390 nM.

What does the source list for “IL-21_human_I95H Fc fusion protein (from UniProt Q9HBE4 30-162)”?
Kd [5]: 849 nM; Kd [6]: 16 nM

Which Kd [9] does the source give for “IL-21_K106T (from UniProt Q9HBE4 32-152) (ligand)” here?
Its Kd is 200 nM.

And the Kd [8]?
Its Kd is 210 nM.

Which Kd [5] does the source give for “IL-21_human_I37G Fc fusion protein (from UniProt Q9HBE4 30-162)” here?
Its Kd is 159 nM.

Which results are given for “IL-21_R115Q (from UniProt Q9HBE4 32-152) (ligand)”?
Kd [7]: 56 nM; Kd [10]: 11 nM

What does the source list for “IL-21_human_I37V Fc fusion protein (from UniProt Q9HBE4 30-162)”?
Kd [5]: 5.27 nM; Kd [6]: 3.02 nM

Which Kd [5] does the source give for “IL-21_human_I45H Fc fusion protein (from UniProt Q9HBE4 30-162)” here?
The Kd was 124 nM.

What about the Kd [6] of the same substance?
Its Kd is 29 nM.

How did the Kd [1] turn out when “IL-21_Q48G (from UniProt Q9HBE4 32-152) (ligand)” was run?
Its Kd is 59 nM.

What about the Kd [2] of the same substance?
Its Kd is 39 nM.

What about the Kd [3] of the same substance?
The Kd was 16 nM.

What about the Kd [4] of the same substance?
Its Kd is 3200 nM.

With “IL-21_human_I148S Fc fusion protein (from UniProt Q9HBE4 30-162)” as the substance, how does the Kd [5] read?
Its Kd is 6.46 nM.

And the Kd [6]?
The Kd was 2.45 nM.

Which results are given for “IL-21_human_W73L Fc fusion protein (from UniProt Q9HBE4 30-162)”?
Kd [5]: 19.9 nM; Kd [6]: 22.8 nM; Mouse T cell EC50 (pM), pSTAT3 phosflow [11]: 6900 pM

For “IL-21_R115I (from UniProt Q9HBE4 32-152) (ligand)”, which Kd [9] is on record?
Its Kd is 140 nM.

What about the Kd [7] of the same substance?
The Kd was 50 nM.

And the Kd [10]?
The Kd was 35 nM.

What about the Kd [8] of the same substance?
Its Kd is 260 nM.

For “IL-21_R34L (from UniProt Q9HBE4 32-152) (ligand)”, which Kd [9] is on record?
Its Kd is 100 nM.

What about the Kd [7] of the same substance?
Its Kd is 77 nM.

What about the Kd [8] of the same substance?
The Kd was 330 nM.
